The test concerns the target β1 wild-type cytoplasmic tail peptide. Briefly: pull-down.

The substance “recombinant full length talin-1, P26039 1-2541” had a fold more talin pulled down with equal molar FL-Kank2 than with GST only of 5 fold and a fold more talin pulled down with equal molar GST-KN than with GST only of 5 fold.
